Data on 5 molecules can be found in US20140087995A1 (published 2014).

What is called IC50 is the concentration needed to halve the response being measured.

T1: rat calcitonin receptor (rat, UniProt P32214 25-516)
T1 construct: whole, on cells; also called rCTR; rat calcitonin (a) receptor
T1 sequence (looked up): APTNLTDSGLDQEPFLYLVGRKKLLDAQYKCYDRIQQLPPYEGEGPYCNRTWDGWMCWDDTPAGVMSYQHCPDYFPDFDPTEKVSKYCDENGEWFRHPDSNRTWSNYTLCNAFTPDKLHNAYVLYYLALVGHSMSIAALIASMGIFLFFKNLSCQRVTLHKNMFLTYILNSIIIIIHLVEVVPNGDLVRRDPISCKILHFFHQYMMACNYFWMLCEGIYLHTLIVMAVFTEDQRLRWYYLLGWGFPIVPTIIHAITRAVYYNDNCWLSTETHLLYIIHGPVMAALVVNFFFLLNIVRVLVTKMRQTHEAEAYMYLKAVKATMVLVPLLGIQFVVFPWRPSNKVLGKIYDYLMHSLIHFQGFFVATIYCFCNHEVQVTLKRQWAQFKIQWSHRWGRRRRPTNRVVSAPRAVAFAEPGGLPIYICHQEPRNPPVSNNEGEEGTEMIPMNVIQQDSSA

T2: human calcitonin receptor (human, UniProt P30988 25-474)
T2 construct: whole, on cells; also called hCTR; hCT
T2 sequence (looked up): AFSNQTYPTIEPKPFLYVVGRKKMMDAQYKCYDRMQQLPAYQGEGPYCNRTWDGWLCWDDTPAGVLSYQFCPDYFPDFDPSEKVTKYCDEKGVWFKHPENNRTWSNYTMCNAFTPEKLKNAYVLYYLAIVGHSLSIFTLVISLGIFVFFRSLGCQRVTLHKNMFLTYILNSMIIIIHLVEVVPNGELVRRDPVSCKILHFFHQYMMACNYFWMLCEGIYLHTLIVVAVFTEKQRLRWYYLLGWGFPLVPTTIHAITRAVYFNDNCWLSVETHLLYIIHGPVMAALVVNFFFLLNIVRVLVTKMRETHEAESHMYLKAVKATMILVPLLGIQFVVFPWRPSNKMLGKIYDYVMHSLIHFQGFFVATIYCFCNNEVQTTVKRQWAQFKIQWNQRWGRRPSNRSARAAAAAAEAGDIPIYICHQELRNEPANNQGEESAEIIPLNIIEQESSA

T3: rat amylin receptor (rat calcitonin receptor + rat RAMP 3) (rat, UniProt P32214 25-516; Q9JJ73 23-147)
T3 construct: whole, on cells; also called rAmylin-R; rat amylin 3(a) receptor
T3 sequence (looked up) 1: T1 sequence (looked up)
T3 sequence (looked up) 2: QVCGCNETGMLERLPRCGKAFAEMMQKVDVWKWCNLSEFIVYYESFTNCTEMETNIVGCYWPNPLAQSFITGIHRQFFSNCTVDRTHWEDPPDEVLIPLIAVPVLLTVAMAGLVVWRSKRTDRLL

B1: N^ε1-[2-[2-[2-[[(4S)-4-carboxy-4-(19-carboxynonadecanoylamino)butanoyl]amino]ethoxy]ethoxy]acetyl]-[Arg17,Pro21,Pro27,Arg34]-h-amylin (peptide)
peptide: K([AEEA-γGlu-C20 diacid])CNTATCATQRLANFLRHSSPNFGAIPSSTNVGRNTY-NH2
modifications: disulfide 2-7; N-terminus assumed
SMILES: CC[C@H](C)[C@H](NC(=O)[C@H](C)NC(=O)CNC(=O)[C@H](Cc1ccccc1)NC(=O)[C@H](CC(N)=O)NC(=O)[C@@H]1CCCN1C(=O)[C@H](CO)NC(=O)[C@H](CO)NC(=O)[C@H](Cc1c[nH]cn1)NC(=O)[C@H](CCCNC(=N)N)NC(=O)[C@H](CC(C)C)NC(=O)[C@H](Cc1ccccc1)NC(=O)[C@H](CC(N)=O)NC(=O)[C@H](C)NC(=O)[C@H](CC(C)C)NC(=O)[C@H](CCCNC(=N)N)NC(=O)[C@H](CCC(N)=O)NC(=O)[C@@H](NC(=O)[C@H](C)NC(=O)[C@@H]1CSSC[C@H](NC(=O)[C@@H](N)CCCCNC(=O)COCCOCCNC(=O)CC[C@H](NC(=O)CCCCCCCCCCCCCCCCCCC(=O)O)C(=O)O)C(=O)N[C@@H](CC(N)=O)C(=O)N[C@@H]([C@@H](C)O)C(=O)N[C@@H](C)C(=O)N[C@@H]([C@@H](C)O)C(=O)N1)[C@@H](C)O)C(=O)N1CCC[C@H]1C(=O)N[C@@H](CO)C(=O)N[C@@H](CO)C(=O)N[C@H](C(=O)N[C@@H](CC(N)=O)C(=O)N[C@H](C(=O)NCC(=O)N[C@@H](CCCNC(=N)N)C(=O)N[C@@H](CC(N)=O)C(=O)N[C@H](C(=O)N[C@@H](Cc1ccc(O)cc1)C(N)=O)[C@@H](C)O)C(C)C)[C@@H](C)O
notes: synthetic analogue of human amylin; also called compound 78
B2: N^ε1-[2-[2-[2-[[(4S)-4-carboxy-4-(19-carboxynonadecanoylamino)butanoyl]amino]ethoxy]ethoxy]acetyl]-[Arg17,Pro21,Pro27,Pro28,Pro31]-h-amylin (peptide)
peptide: K([AEEA-γGlu-C20 diacid])CNTATCATQRLANFLRHSSPNFGAIPPSTPVGSNTY-NH2
modifications: disulfide 2-7
notes: synthetic analogue of human amylin; also called compound 53
B3: N^ε1-[2-[2-[2-[[(4S)-4-carboxy-4-(19-carboxynonadecanoylamino)butanoyl]amino]ethoxy]ethoxy]acetyl]-[Arg17,Pro21,Pro27,Pro28,Pro34]-h-amylin (peptide)
peptide: K([AEEA-γGlu-C20 diacid])CNTATCATQRLANFLRHSSPNFGAIPPSTNVGPNTY-NH2
modifications: disulfide 2-7; N-terminus assumed
SMILES: CC[C@H](C)[C@H](NC(=O)[C@H](C)NC(=O)CNC(=O)[C@H](Cc1ccccc1)NC(=O)[C@H](CC(N)=O)NC(=O)[C@@H]1CCCN1C(=O)[C@H](CO)NC(=O)[C@H](CO)NC(=O)[C@H](Cc1c[nH]cn1)NC(=O)[C@H](CCCNC(=N)N)NC(=O)[C@H](CC(C)C)NC(=O)[C@H](Cc1ccccc1)NC(=O)[C@H](CC(N)=O)NC(=O)[C@H](C)NC(=O)[C@H](CC(C)C)NC(=O)[C@H](CCCNC(=N)N)NC(=O)[C@H](CCC(N)=O)NC(=O)[C@@H](NC(=O)[C@H](C)NC(=O)[C@@H]1CSSC[C@H](NC(=O)[C@@H](N)CCCCNC(=O)COCCOCCNC(=O)CC[C@H](NC(=O)CCCCCCCCCCCCCCCCCCC(=O)O)C(=O)O)C(=O)N[C@@H](CC(N)=O)C(=O)N[C@@H]([C@@H](C)O)C(=O)N[C@@H](C)C(=O)N[C@@H]([C@@H](C)O)C(=O)N1)[C@@H](C)O)C(=O)N1CCC[C@H]1C(=O)N1CCC[C@H]1C(=O)N[C@@H](CO)C(=O)N[C@H](C(=O)N[C@@H](CC(N)=O)C(=O)N[C@H](C(=O)NCC(=O)N1CCC[C@H]1C(=O)N[C@@H](CC(N)=O)C(=O)N[C@H](C(=O)N[C@@H](Cc1ccc(O)cc1)C(N)=O)[C@@H](C)O)C(C)C)[C@@H](C)O
notes: synthetic analogue of human amylin; also called compound 55
B4: N^ε1-[2-[2-[2-[[(4S)-4-carboxy-4-(19-carboxynonadecanoylamino)butanoyl]amino]ethoxy]ethoxy]acetyl]-[Arg17,Pro21,Pro27,His34]-h-amylin (peptide)
peptide: K([AEEA-γGlu-C20 diacid])CNTATCATQRLANFLRHSSPNFGAIPSSTNVGHNTY-NH2
modifications: disulfide 2-7; N-terminus assumed
SMILES: CC[C@H](C)[C@H](NC(=O)[C@H](C)NC(=O)CNC(=O)[C@H](Cc1ccccc1)NC(=O)[C@H](CC(N)=O)NC(=O)[C@@H]1CCCN1C(=O)[C@H](CO)NC(=O)[C@H](CO)NC(=O)[C@H](Cc1c[nH]cn1)NC(=O)[C@H](CCCNC(=N)N)NC(=O)[C@H](CC(C)C)NC(=O)[C@H](Cc1ccccc1)NC(=O)[C@H](CC(N)=O)NC(=O)[C@H](C)NC(=O)[C@H](CC(C)C)NC(=O)[C@H](CCCNC(=N)N)NC(=O)[C@H](CCC(N)=O)NC(=O)[C@@H](NC(=O)[C@H](C)NC(=O)[C@@H]1CSSC[C@H](NC(=O)[C@@H](N)CCCCNC(=O)COCCOCCNC(=O)CC[C@H](NC(=O)CCCCCCCCCCCCCCCCCCC(=O)O)C(=O)O)C(=O)N[C@@H](CC(N)=O)C(=O)N[C@@H]([C@@H](C)O)C(=O)N[C@@H](C)C(=O)N[C@@H]([C@@H](C)O)C(=O)N1)[C@@H](C)O)C(=O)N1CCC[C@H]1C(=O)N[C@@H](CO)C(=O)N[C@@H](CO)C(=O)N[C@H](C(=O)N[C@@H](CC(N)=O)C(=O)N[C@H](C(=O)NCC(=O)N[C@@H](Cc1c[nH]cn1)C(=O)N[C@@H](CC(N)=O)C(=O)N[C@H](C(=O)N[C@@H](Cc1ccc(O)cc1)C(N)=O)[C@@H](C)O)C(C)C)[C@@H](C)O
notes: synthetic analogue of human amylin; also called compound 76
B5: N^ε1-[2-[2-[2-[[(4S)-4-carboxy-4-(19-carboxynonadecanoylamino)butanoyl]amino]ethoxy]ethoxy]acetyl]-[Arg17,Pro21,Pro27,Pro29,Pro31]-h-amylin (peptide)
peptide: K([AEEA-γGlu-C20 diacid])CNTATCATQRLANFLRHSSPNFGAIPSPTPVGSNTY-NH2
modifications: disulfide 2-7; N-terminus assumed
SMILES: CC[C@H](C)[C@H](NC(=O)[C@H](C)NC(=O)CNC(=O)[C@H](Cc1ccccc1)NC(=O)[C@H](CC(N)=O)NC(=O)[C@@H]1CCCN1C(=O)[C@H](CO)NC(=O)[C@H](CO)NC(=O)[C@H](Cc1c[nH]cn1)NC(=O)[C@H](CCCNC(=N)N)NC(=O)[C@H](CC(C)C)NC(=O)[C@H](Cc1ccccc1)NC(=O)[C@H](CC(N)=O)NC(=O)[C@H](C)NC(=O)[C@H](CC(C)C)NC(=O)[C@H](CCCNC(=N)N)NC(=O)[C@H](CCC(N)=O)NC(=O)[C@@H](NC(=O)[C@H](C)NC(=O)[C@@H]1CSSC[C@H](NC(=O)[C@@H](N)CCCCNC(=O)COCCOCCNC(=O)CC[C@H](NC(=O)CCCCCCCCCCCCCCCCCCC(=O)O)C(=O)O)C(=O)N[C@@H](CC(N)=O)C(=O)N[C@@H]([C@@H](C)O)C(=O)N[C@@H](C)C(=O)N[C@@H]([C@@H](C)O)C(=O)N1)[C@@H](C)O)C(=O)N1CCC[C@H]1C(=O)N[C@@H](CO)C(=O)N1CCC[C@H]1C(=O)N[C@H](C(=O)N1CCC[C@H]1C(=O)N[C@H](C(=O)NCC(=O)N[C@@H](CO)C(=O)N[C@@H](CC(N)=O)C(=O)N[C@H](C(=O)N[C@@H](Cc1ccc(O)cc1)C(N)=O)[C@@H](C)O)C(C)C)[C@@H](C)O
notes: synthetic analogue of human amylin; also called compound 54

Numbered stars: 1 amine (or outer) side, 2 acyl side, 3 side chain; on linkers, the order of the positions; unused ones are H or OH. Bridge positions count the residues as written; N and C are the ends. Side chains are listed from the residue outwards. Ends that are not written are not given here. * marks the point of attachment. C20 diacid = O=C(O)CCCCCCCCCCCCCCCCCCC(=O)*; γGlu = O=C(O)[C@H](CCC(=O)[*:2])N[*:1]; AEEA = NCCOCCOCC(=O)O

In the first assay the target is T1, rat calcitonin receptor. Briefly: SPA competition with 125I-calcitonin, membranes of BHK cells with rat calcitonin receptor (Assay VIII).
Regarding B1, the concentration for half-maximal inhibition (IC50) stood at 90.6 nM.

As for B2, the IC50 was 10.9 nM.

Consider B3, for which the IC50 amounted to 6.25 nM.

As to B4, the IC50 stood at 38.9 nM.

With B5, the IC50 stood at 8.79 nM.

The next assay deals with T2, human calcitonin receptor. Briefly: ratio of binding IC50s: human calcitonin receptor over human amylin receptor (reference). How it is done: The resulting pellet was resuspended, homogenized and centrifuged (20.000 rpm, 15 min) in a buffer containing 20 mM Na-HEPES and 0.1 mM EDTA (pH 7.4, buffer 2). The resulting pellet was resuspended in buffer 2 and protein concentration was measured (BCA protein Assay, Pierce). The homogenate was kept cold during the whole procedure. The membranes were kept at −80° C. until use. The assay was performed in a 384 well Optiplate (PerkinElmer) in a total volume of 40 ul. Membranes were mixed with SPA beads. Final concentration of membranes 35 ng/μL final and SPA beads was 0.05 mg/well. Test-compounds were dissolved in DMSO and further diluted in assay buffer (50 mM Hepes, pH 7.4, 1 mM CaCl2, 5 mM MgCl₂, 0.1% OA and 0.02% Tween20). […] The final mixture was incubated with shaking at 400 rpm for 120 min at 25° C. prior to centrifugation (1500 rpm, 10 min). Samples were analyzed on TopCounter™ (Packard). The IC₅₀ was calculated using (one site binding competition analysis) GraphPad Prism5 as a measure of receptor affinity.
Membranes were prepared in the following way; the cells were rinsed with PBS and incubated with Versene for approximately 5 min before harvesting. The cells were flushed with PBS and the cell-suspension was centrifuged for 5 min at 1000 rpm. Cells were homogenized (Ultrathurrax) in a buffer containing 20 mM Na-HEPES and 10 mM EDTA (pH 7.4) and centrifuged at 20.000 rpm for 15 min. The resulting pellet was resuspended, homogenized and centrifuged (20.000 rpm, 15 min) in a buffer containing 20 mM Na-HEPES and 0.1 mM EDTA (pH 7.4, buffer 2). The resulting pellet was resuspended in buffer 2 and protein concentration was measured (BCA protein Assay, Pierce). The homogenate was kept cold during the whole procedure. The membranes were kept at −80° C. until use. Assay was performed in a 384 well Optiplate (PerkinElmer) in a total volume of 40 ul. Membranes were mixed with SPA beads.
Turning to B1, the “Ratio hCT/hAmylin binding” value amounted to 60.7.

With B2, the “Ratio hCT/hAmylin binding” value stood at 104.

For the molecule B3, the “Ratio hCT/hAmylin binding” value came out at 51.8.

As for B4, the “Ratio hCT/hAmylin binding” value was 80.

As for B5, the “Ratio hCT/hAmylin binding” value amounted to 146.

For a further assay, the target named is T3, rat amylin receptor (rat calcitonin …). Briefly: SPA competition with 125I-rat amylin, membranes of BHK cells with rat calcitonin receptor + rat RAMP3 (Assay VI).
As for B1, the IC50 worked out at 1.3 nM.

In the case of B2, the IC50 turned out to be 0.084 nM.

For the molecule B3, the IC50 was determined as 0.081 nM.

For the molecule B4, the IC50 was determined as 0.686 nM.

B5: the concentration for half-maximal inhibition (IC50) was 0.049 nM.

The next assay deals with T1, rat calcitonin receptor. Briefly: ratio of binding IC50s: rat calcitonin receptor over rat amylin receptor (reference).
As to B1, the “Ratio rCT/rAmylin binding” value was 69.9.

Turning to B2, the “Ratio rCT/rAmylin binding” value was 130.

Regarding B3, the “Ratio rCT/rAmylin binding” value was found to be 77.2.

On to B4, for which the “Ratio rCT/rAmylin binding” value came to 56.8.

For the molecule B5, the “Ratio rCT/rAmylin binding” value came to 179.
